Measurements published in paper PMC7966918 (Cell Research, 2021).

Tests used:
[1] = biological target: T1, SARS-CoV-2 RBD (residues Arg319–Phe541) (SARS-CoV-2, UniProt P0DTC2); test: cell-based or functional assay
[2] = biological target: T1, SARS-CoV-2 RBD (residues Arg319–Phe541); test: SPR; conditions: both partners purified

B1: P2B-1A10 (full-length IgG) (antibody, V domains shown)
VH: EVQLVESGGGLIQPGGSLRLSCAASGFTVSSNYMSWVRQAPGKGLEWVSVIYSGGSTYYADSVKGRFTISRDNSKNTLYLQMNSLRAEDTAVYYCAREGPKSITGTAFDIWGQGTIVTVSS
VL: DIQMTQSPSSLSASVGDRVTITCQASQDISNYFNWYQQKPGKAPKLLIYDASNLETGVPSRFSGSGSGTDFTFTISSLQPEDIATYYCQQYDNLPMYTFGQGTKLEIK
other [1]: 81.8%
Kd [2]: 50.8 nM

B2: P5A-1B8 (full-length IgG) (antibody, V domains shown)
VH: EVQLVESGGGLIQPGGSLRLSCAASGFTVSSNYMSWVRQAPGKGLEWVSVIYPGGSTFYADSVKGRFTISRDNSKNTLYLQMNSLRAEDTAVYYCARETLAFDYWGQGTLVTVSS
VL: DIQLTQSPSFLSASVGDRVTITCRASQGISSYLAWYQQKPGKAPKLLIYAASTLQSGVPSRFSGSGSGTEFTLTISSLQPEDFATYYCQQLNSYPPAFGGGTKVEIK
other [1]: 79.6%
Kd [2]: 1.09 nM

B3: P5A-2G9 (full-length IgG) (antibody, V domains shown)
VH: QVQLVESGGGVVQPGRSLRLSCAASGFTFSSYGMHWVRQAPGKGLEWVAVIWYDGSNKYYADSVKGRFTISRDNSKNTLYLQMNSLRAEDTAVYYCARWFHTGGYFDYWGQGTLVTVSS
VL: QPVLTQPPSSSASPGESARLTCTLPSDINVSSYNIYWYQQKPGSPPRYLLYYYSDSDKGQGSGVPSRFSGSKDASANTGILLISGLQSEDEADYYCMIWPSNALYVFGTGTKVTVL
other [1]: 84.9%
Kd [2]: 6.98 nM

B4: P5A-1B6 (full-length IgG) (antibody, V domains shown)
VH: QVQLVESGGGVVQPGRSLRLSCAASGFTFSSYAMHWVRQAPGKGLEWVAVISYDGSNKYYADSVKGRFTISRDNSKNTLYLQMNSLRAEDTAVYYCARDGQAITMVQGVIGPPFDYWGQGTLVTVSS
VL: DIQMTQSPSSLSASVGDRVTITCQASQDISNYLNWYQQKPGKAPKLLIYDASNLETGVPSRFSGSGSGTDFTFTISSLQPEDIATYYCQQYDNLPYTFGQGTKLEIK
other [1]: 76%
Kd [2]: 1.01 nM

B5: P2B-1A1 (full-length IgG) (antibody, V domains shown)
VH: QVQLQESGPGLVKPSETLSLTCTVSGGSISSYYWSWIRQPPGKGLEWIGYIYYSGSTNYNPSLKSRVTISVDTSKKQFSLKLSSVTAADTAVYYCARLERDWPLDAFDIWGQGTMVTVSS
VL: QSALTQPASVSGSPGQSITISCTGTSSDVGGYNYVSWYQQHPGKAPKFMIYDVSKRPSGVSNRFSGSKSGNTASLTISGLQAEDEADYYCSSYTSNNTFAFGGGTKLTVL
other [1]: -9.7%
Kd [2]: 27 nM

B6: P5A-2G7 (full-length IgG) (antibody, V domains shown)
VH: QVQLQESGPGLVKPSETLSLTCTVSGDSVSSGSYYWSWIRQPPGKGLEWIGYIYYSGSTNYNPSLKSRVTISVDTSKNQFSLKLSSVTAADTAVYYCARERCYYGSGRAPRCVWFDPWGQGTLVTVSS
VL: QSALTQPASVSGSPGQSITISCTGTSSDVGGYNYVSWYQQHPGKAPKLMIYDVSNRPSGVSNRFSGSKSGNTASLTISGLQAEDEADYYCSSYTSSSTLVVFGGGTKLTVL
other [1]: 57.2%
Kd [2]: 3.55 nM

B7: P5A-1B9 (full-length IgG) (antibody, V domains shown)
VH: QVQLQESGPGLVKPSETLSLTCTVSGGSISSYYWSWIRQPPGKGLEWIGYISYSGSTNYNPSLKSRVTISLDTSKNQFSLKLSSVTAADTAVYYCASNGQYYDILTGQPPDYWYFDLWGRGTLVTVSS
VL: not shown
other [1]: 43.8%
Kd [2]: 0.75 nM

B8: P5A-2F11 (full-length IgG) (antibody, V domains shown)
VH: QVQLVQSGAEVKKPGASVKVSCKASGYTFTSYDINWVRQATGQGLEWMGWMNPNSGNTGYAQKFQGRVTMTRNTSISTAYMELSSLRSEDTAVYYCARYIVVVPAAKGFDPWGQGTLVTVSS
VL: not shown
other [1]: 56.2%
Kd [2]: 5.33 nM

B9: P5A-3C12 (full-length IgG) (antibody, V domains shown)
VH: QITLKESGPTLVKPTQTLTLTCTFSGFSLSTSGVGVGWIRQPPGKALEWLALIYWDDDKRYSPSLKSRLTITKDTSKNQVVLTMTNMDPVDTATYYCAHSLFLTVGYSSSWSPFDYWGQGTLVTVSS
VL: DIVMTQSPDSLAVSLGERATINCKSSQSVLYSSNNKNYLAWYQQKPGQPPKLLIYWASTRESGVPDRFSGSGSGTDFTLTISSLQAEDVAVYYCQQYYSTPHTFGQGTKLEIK
other [1]: 54.5%
Kd [2]: 1.03 nM
